Measurements from the Human Domainome abundance scans (Beltran et al. 2025).

B1: Homeobox protein cut-like 1, residues 941 to 1008; numbered along this chain, P39880 (parent)
chain: QEVDTIELTRQVKEKLAKNGICQRIFGEKVLGLSQGSVSDMLSRPKPWSKLTQKGREPFIRMQLWLNG

Variants of: B1
Assay: abundance fitness (aPCA) (normalised: wild type 0, dead -1); higher = more abundant; growth selection in yeast, the domain comes from the species named
Settings: Homo sapiens

Abundance fitness of substitutions, site by site:
T5: N -0.223, E -0.204, R -0.157, K -0.121, V -0.383, Q -0.086, C -0.233, H -0.145, M -0.02, F -0.235
R10: A -0.096, L -0.246, E -0.056, W -0.509, G -0.089, S -0.111, Q -0.135, N 0.036, P -0.157, K 0.074, I -0.301, Y -0.306, F -0.307, D -0.112, H -0.226, C -0.22
G20: Y -0.104, D -0.279, A -0.135, V -0.441, F -0.239, I -0.361, Q 0.067, R -0.048, S -0.112, C -0.317, P -0.141, H -0.24, E -0.331, T -0.087, L -0.277, W -0.287, M -0.231, K 0.046
K13: A -0.339, Y -0.475, G -0.419, C -0.459, E -0.208, W -0.459, Q -0.1, F -0.768, N -0.132, L -0.326, H -0.254, V -0.392, T -0.146, S -0.35, M -0.278, R -0.119, P -0.159, D -0.262
Q23: C -0.281, V -0.321, M -0.195, H -0.117, A -0.161, F -0.265, G -0.28, P -0.044, D -0.429, E -0.068, R -0.019, T -0.104, L -0.038, S -0.029, K -0.245, N -0.133, I -0.537
T9: P -0.28, Y -0.577, N -0.348, R -0.212, C -0.087, I -0.113, D -0.168, G -0.047, E -0.191, M -0.384, L -0.405, W -0.197, K -0.109, S -0.149, H -0.142, A 0.026
L16: F -0.257, W -0.194, M 0.107, Y -0.278, R -0.033, S -0.033, N -0.217, Q -0.102, I -0.198, V -0.162, A -0.188, C -0.073, T 0.023, P 0.004, H 0.009, D -0.189, G -0.015, E -0.032
K18: D -0.397, R -0.139, L -0.168, Q -0.134, F -0.287, I -0.085, H -0.412, S -0.102, V -0.184, A -0.083, W -0.272, M -0.059, Y -0.527, N -0.051, C -0.261, E 0, G -0.226
C22: R -0.16, A -0.053, K -0.229, S 0.049, T 0.02, E -0.155, H -0.006, W -0.161, D -0.045, F -0.133, M -0.062, V -0.196, P -0.069, Y -0.28, N -0.192, G -0.27, L -0.102, Q -0.256
K15: N -0.012, I -0.085, A -0.147, E -0.083, S -0.221, C -0.119, P -0.052, G -0.366, W -0.238, Q -0.119, F -0.175, M -0.148, L -0.057, H -0.259, T -0.196, Y 0.145, D -0.586, R -0.096, V -0.228
